Measured values as given in publication PMC9544432 (Proteins, 2021).
Like-named read-outs stand apart in the source and are kept apart here.

Assays:
Assay in all cases: SPR
VEGFR2(D2–3) D257A/E261A = target: T1, VEGFR2(D2–3) D257A/E261A (human)
T1 chain: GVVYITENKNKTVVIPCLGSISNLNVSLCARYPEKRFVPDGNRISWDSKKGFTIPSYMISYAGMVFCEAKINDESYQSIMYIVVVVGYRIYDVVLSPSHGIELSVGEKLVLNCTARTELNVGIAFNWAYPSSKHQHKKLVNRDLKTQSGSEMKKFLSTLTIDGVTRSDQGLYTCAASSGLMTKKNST

[1] = target: T2, VEGFR2(D2–3), domains 2 and 3 of the extracellular portion of human VEGFR2, wild type (human)
T2 chain: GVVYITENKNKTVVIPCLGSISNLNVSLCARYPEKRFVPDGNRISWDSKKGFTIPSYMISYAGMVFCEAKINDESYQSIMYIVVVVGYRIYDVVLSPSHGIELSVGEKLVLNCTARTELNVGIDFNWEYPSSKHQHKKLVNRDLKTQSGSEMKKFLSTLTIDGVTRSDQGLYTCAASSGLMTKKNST

[2] = target: T2, VEGFR2(D2–3), domains 2 and 3 of the …

Kd (VEGFR2(D2–3) D257A/E261A): 35.8 nM | Kd [1]: 1.3 nM | Kd [2]: 0.22 nM
B1: KD035 antigen-binding fragment (Fab) (Fab, V domains shown)
VH: EVQLLESGGGLVQPGGSLRLSCAASGFTFSWYVMGWVRQAPGKGLEWVSSIYPSGGATNYADSVKGRFTISRDNSKNTLYLQMNSLRAEDTAVYYCARGNYFDYWGQGTLVTVSS
VL: QSVLTQPPSVSVSPGQTASITCSGEKLGDEYASWYQQKPGQSPVLVIYQDNKRPSGIPERFSGSNSGNTATLTISGTQAMDEADYYCQAWDSSTLLFGGGTKLTVL
